Measurements as given in patent US7115382B1, “Method for detecting IGFBP-4 protease without detecting IGFBP-4 protease/proMBP Complex” (Mayo Foundation for Medical Education and Research, priority 1999, dated 2006).
Each block holds one molecule with its values, some of them ahead of it.

Key:
[1] = molecular target: T1, IGFBP-4 protease activity in follicular fluid (Homo sapiens, UniProt Q13219); experiment: IGFBP-4 proteolysis in IVF follicular fluid, cell-free [125I]IGFBP-4 assay; type: biochemical; conditions: for Effect on IGFBP-4 protease activity in IVF follicular fluid: added to the assay during 6 h incubation; for % Inhibition of IGFBP-4 proteolysis, FF: follicular fluid 10 μl, [125I]IGFBP-4, 6 h 37°C, EDTA 5 mM, 1,10 phenantholine 5 mM, PMSF 10 mM, Pefabloc 1 mM, TIMP-1 5 μg/ml
T1 construct: Follicular fluid was obtained at the time of follicle aspiration for in vitro fertilization (IVF) procedures; from tissue; host or cells: IVF follicular fluid
Experimental: PAPP-A Activity. […] For some experiments, PAPP-A polyclonal antibody or nonspecific rabbit IgG was added to the assay mixture or was used in conjunction with protein G plus protein A-agarose (Oncogene Science) to immunoprecipitate IGFBP-4 protease activity before assay.
(§1) For some experiments, protease inhibitors (see Table 2) or PAPP-A polyclonal antibody were added to the assay mixture during the 6 h incubation. In others, PAPP-A antibody or nonspecific rabbit IgG was used in conjunction with Protein G-plus/Protein-A-agarose (Oncogene Science) to immunoprecipitate IGFBP-4 protease activity and the sample supernatants were then used in the protease assay.

[2] = molecular target: T2, PAPP-A (Homo sapiens, UniProt Q13219); experiment: IGFBP-4 proteolysis by PAPP-A purified from pregnancy serum, [125I]IGFBP-4 assay; type: biochemical; conditions: PAPP-A purified from pregnancy serum 500 ng, EDTA 5 mM, 1,10 phenantholine 5 mM, PMSF 10 mM, TIMP-1 5 μg/ml
T2 construct: a pro-part of 58 residues, and an 1547-residue circulating mature polypeptide; from tissue; host or cells: human term pregnancy serum
Experimental: (§2) PAPP-A Activity. IGFBP-4 proteolysis was assayed by incubating the sample overnight at 37° C. with 2 mM CaC2/50 mM Tris (pH 7.5)/10,000 cpm of [^125I]IGFBP-4 in the absence and presence of 5 nM IGF-II in a total volume of 25 μl. Proteins were separated by reducing 15% SDS/PAGE and visualized by autoradiography. For some experiments, PAPP-A polyclonal antibody or nonspecific rabbit IgG was added to the assay mixture or was used in conjunction with protein G plus protein A-agarose (Oncogene Science) to immunoprecipitate IGFBP-4 protease activity before assay.
IGFBP-4 proteolysis was assayed as described in Example 1, by incubating sample at 37° C. for 6 h with [^125I]IGFBP-4. Reaction products were separated by nonreducing 7.5–15% gradient SDS-PAGE, and visualized by autoradiography.
as §1

[3] = molecular target: T3, rPAPP-A (Homo sapiens, UniProt Q13219); experiment: Activity of recombinant PAPP-A against IGFBP-4; type: biochemical; conditions: in presence of IGF
T3 construct: because the mature rPAPP-A is antigenic, functional, and secreted abundantly into the culture medium; made in house; host or cells: human embryonic kidney 293T cells, pcDNA3.1-PAPP-A; culture supernatant or purified
Experimental: as §2
(§3) Measurement of PAPP-A Proteolytic Activity: IGFBP-4 proteolysis was assayed as described in Example 1. The activity of the PAPP-A/proMBP complex was compared to the activity of rPAPP-A in two parallel time course experiments scaled up to larger reaction volumes: Equal amounts of sample A (pool of pregnancy serum diluted to 7 μg/ml of PAPP-A/proMBP as determined by ELISA calibrated with purified PAPP-A/proMBP) and sample B (as sample A, but rPAPP-A supernatant added to 7 μg/ml as determined by ELISA calibrated with purified rPAPP-A) were incubated with [^125I]IGFBP-4 in the presence of 5 nM IGF-II. […] The experiment with sample A was also carried out in the presence of polyclonal anti(PAPP-A/proMBP). A similar time course experiment was performed for comparison of PAPP-A activity in selected column fractions.

[4] = molecular target: insulin-like growth factor binding protein-4 ([125I]IGFBP-4) (human) (UniProt P22692); experiment: cell-based or functional assay
[5] = test system: IGFBP-4; experiment: IGFBP-4 cleavage by PAPP-A forms (rPAPP-A, PAPP-A/proMBP, column fractions); type: biochemical, human; conditions: for Amount required to obtain the same degree of IGFBP-4 cleavage: initial experiment, purified proteins; for IGF-dependent IGFBP-4 protease activity: with and without IGF-II
Experimental: as §2, §3

[6] = molecular target: PAPP-A (IGFBP-4 protease) in IVF follicular fluid (human) (UniProt Q13219); experiment: cell-based or functional assay
[7] = molecular target: PAPP-A/proMBP complex purified from pregnancy serum (human) (UniProt Q13219); experiment: cell-based or functional assay
[8] = molecular target: T4, insulin-like growth factor binding protein-4 ([125I]IGFBP-4) (UniProt P22692)
T4 sequence: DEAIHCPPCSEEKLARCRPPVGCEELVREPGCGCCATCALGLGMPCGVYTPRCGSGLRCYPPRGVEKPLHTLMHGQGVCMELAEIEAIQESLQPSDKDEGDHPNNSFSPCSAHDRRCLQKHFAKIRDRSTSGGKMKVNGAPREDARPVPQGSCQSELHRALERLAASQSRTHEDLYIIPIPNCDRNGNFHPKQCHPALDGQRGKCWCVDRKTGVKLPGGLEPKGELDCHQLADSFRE

[9] = test system: human granulosa cells; conditions: Iwashita et al. 1996; cited from earlier work
[10] = molecular target: T5, insulin-like growth factor binding protein-4 ([125I]IGFBP-4), P22692
T5 chain: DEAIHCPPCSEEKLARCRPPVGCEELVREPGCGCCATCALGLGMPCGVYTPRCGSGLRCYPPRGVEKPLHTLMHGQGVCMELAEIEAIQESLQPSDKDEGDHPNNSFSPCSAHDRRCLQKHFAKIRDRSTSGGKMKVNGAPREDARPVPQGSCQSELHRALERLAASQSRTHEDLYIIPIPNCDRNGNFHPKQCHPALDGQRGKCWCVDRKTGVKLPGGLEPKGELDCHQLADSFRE

[11] = molecular target: PAPP-A present in pregnancy serum (human, UniProt Q13219 82-1627); experiment: cell-based or functional assay

T3 sequence (Q13219 with tags, fused parts or gaps): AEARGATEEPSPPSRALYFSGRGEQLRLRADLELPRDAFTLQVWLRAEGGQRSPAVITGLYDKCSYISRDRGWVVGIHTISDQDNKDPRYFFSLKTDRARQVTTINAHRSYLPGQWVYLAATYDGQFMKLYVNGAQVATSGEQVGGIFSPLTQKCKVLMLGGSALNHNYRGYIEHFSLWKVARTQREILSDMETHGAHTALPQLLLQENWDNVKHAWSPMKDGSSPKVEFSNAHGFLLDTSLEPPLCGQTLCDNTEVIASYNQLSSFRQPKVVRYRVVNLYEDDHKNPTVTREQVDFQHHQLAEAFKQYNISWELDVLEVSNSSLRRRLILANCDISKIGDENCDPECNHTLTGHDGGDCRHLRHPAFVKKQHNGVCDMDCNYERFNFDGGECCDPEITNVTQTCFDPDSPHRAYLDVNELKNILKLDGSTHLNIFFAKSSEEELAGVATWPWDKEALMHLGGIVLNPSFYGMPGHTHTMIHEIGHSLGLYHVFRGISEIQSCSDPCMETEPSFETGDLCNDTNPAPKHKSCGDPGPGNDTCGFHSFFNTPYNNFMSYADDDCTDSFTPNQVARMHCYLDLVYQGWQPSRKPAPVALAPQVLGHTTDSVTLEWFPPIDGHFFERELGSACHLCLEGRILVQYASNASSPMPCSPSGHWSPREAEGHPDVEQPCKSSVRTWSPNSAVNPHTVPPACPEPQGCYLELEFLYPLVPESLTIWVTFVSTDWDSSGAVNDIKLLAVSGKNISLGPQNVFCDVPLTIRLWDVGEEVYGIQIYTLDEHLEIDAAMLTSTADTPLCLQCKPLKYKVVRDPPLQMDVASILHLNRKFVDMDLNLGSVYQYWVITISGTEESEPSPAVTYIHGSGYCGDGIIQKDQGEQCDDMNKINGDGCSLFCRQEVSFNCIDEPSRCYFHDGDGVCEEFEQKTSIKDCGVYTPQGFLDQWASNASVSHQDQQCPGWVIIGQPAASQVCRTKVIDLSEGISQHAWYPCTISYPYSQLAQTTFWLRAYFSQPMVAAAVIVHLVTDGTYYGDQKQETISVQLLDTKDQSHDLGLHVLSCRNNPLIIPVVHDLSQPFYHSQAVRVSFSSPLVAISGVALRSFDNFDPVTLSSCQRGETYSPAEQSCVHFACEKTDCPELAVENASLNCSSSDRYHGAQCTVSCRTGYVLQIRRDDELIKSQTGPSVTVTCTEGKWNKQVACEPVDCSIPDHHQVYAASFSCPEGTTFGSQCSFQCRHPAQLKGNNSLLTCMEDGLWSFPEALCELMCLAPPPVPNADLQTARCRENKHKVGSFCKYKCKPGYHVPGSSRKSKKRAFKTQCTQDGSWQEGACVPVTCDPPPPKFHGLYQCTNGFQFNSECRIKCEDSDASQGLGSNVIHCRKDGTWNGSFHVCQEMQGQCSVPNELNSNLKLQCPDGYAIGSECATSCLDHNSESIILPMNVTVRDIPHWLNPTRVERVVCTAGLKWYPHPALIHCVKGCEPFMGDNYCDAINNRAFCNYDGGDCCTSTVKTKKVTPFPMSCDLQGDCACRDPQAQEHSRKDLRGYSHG

Effect on IGFBP-4 protease activity in IVF follicular fluid [1]: completely suppressed
% Inhibition of IGFBP-4 proteolysis, FF [1]: 100%
% Inhibition of IGFBP-4 proteolysis, PAPP-A [2]: 100%
Inhibition of rPAPP-A activity against IGFBP-4 [3]: inhibited
Molecule: c1cnc2c(c1)ccc1cccnc12 [1,10 phenantholine, 1,10-phenanthroline]

Effect on IGFBP-4 protease activity in IVF follicular fluid [1]: completely suppressed
Inhibition of rPAPP-A activity against IGFBP-4 [3]: inhibited
Molecule: O=C(O)CN(CCN(CC(=O)O)CC(=O)O)CC(=O)O [EDTA]

Molecule: O=S(=O)(F)Cc1ccccc1 [PMSF]
Effect on IGFBP-4 protease activity in IVF follicular fluid [1]: not
% Inhibition of IGFBP-4 proteolysis, FF [1]: 0%
% Inhibition of IGFBP-4 proteolysis, PAPP-A [2]: 20%

Molecule: Cl.NCCc1ccc(S(=O)(=O)F)cc1 [Pefabloc]
Effect on IGFBP-4 protease activity in IVF follicular fluid [1]: not
% Inhibition of IGFBP-4 proteolysis, FF [1]: 15%

amount required for the same degree of IGFBP-4 cleavage [4]: 50 ng
Molecule: PAPP-A/proMBP complex purified from pregnancy serum (from UniProt Q13219 82-1627; P13727 17-222)

Molecule: PAPP-A/proMBP: approximately 500 kDa disulfide-linked 2:2 complex of PAPP-A and proMBP purified from pregnancy serum
Amount required to obtain the same degree of IGFBP-4 cleavage [5]: approximately 50 ng
IGF-dependent IGFBP-4 protease activity [5]: exhibited IGF-dependent IGFBP-4 protease activity

% Inhibition of IGFBP-4 proteolysis (TIMP-1, 5 ug/ml) [6]: 0%
% Inhibition of IGFBP-4 proteolysis (TIMP-1, 5 ug/ml) [7]: 0%
Molecule: TIMP-1 (from UniProt P01033 24-207)

% Inhibition of IGFBP-4 proteolysis, FF [1]: 0%
Inhibition of rPAPP-A activity against IGFBP-4 [3]: not
Molecule: TIMP-1: a broad spectrum inhibitor of matrix metalloproteinases
Effect on IGFBP-4 protease activity in IVF follicular fluid [1]: had no effect
% Inhibition of IGFBP-4 proteolysis, PAPP-A [2]: 0%

Molecule: rPAPP-A: recombinant PAPP-A expressed in mammalian cells, secreted as a homodimer of about 400 kDa devoid of proMBP
Amount required to obtain the same degree of IGFBP-4 cleavage [5]: 0.1 ng
Difference in specific activity, rPAPP-A versus PAPP-A in pregnancy serum ([5]; time course, 7 μg/ml each, 5 nM IGF-II): about 100 fold
IGF-dependent IGFBP-4 protease activity [5]: cleaves IGFBP-4 in an IGF dependent manner

Molecule: recombinant PAPP-A (rPAPP-A)
amount required for the same degree of IGFBP-4 cleavage [8]: approximately 50 ng of PAPP-A/proMBP complex purified from pregnancy serum was required to obtain the same degree of IGFBP-4 cleavage as 0.1 ng of rPAPP-A
cleavage of IGFBP-4 [8]: IGFBP-4 was cleaved in the presence, but not in the absence of IGF

Molecule: uncomplexed PAPP-A: PAPP-A antigen eluting around fraction 24 of pregnancy serum, uncomplexed PAPP-A dimer
Specific activity against IGFBP-4, early versus late eluting Mono Q peak of pregnancy serum ([5]; fraction 24 versus fraction 43): greater than 25 fold

B1: intact IGFBP4: intact insulin-like growth factor binding protein 4 (protein)
chain: DEAIHCPPCSEEKLARCRPPVGCEELVREPGCGCCATCALGLGMPCGVYTPRCGSGLRCYPPRGVEKPLHTLMHGQGVCMELAEIEAIQESLQPSDKDEGDHPNNSFSPCSAHDRRCLQKHFAKIRDRSTSGGKMKVNGAPREDARPVPQGSCQSELHRALERLAASQSRTHEDLYIIPIPNCDRNGNFHPKQCHPALDGQRGKCWCVDRKTGVKLPGGLEPKGELDCHQLADSFRE
Effect on IGF-stimulated estradiol production [9]: inhibited

B2: PAPP-A (IGFBP-4 protease) in IVF follicular fluid (protein)
chain: EARGATEEPSPPSRALYFSGRGEQLRLRADLELPRDAFTLQVWLRAEGGQRSPAVITGLYDKCSYISRDRGWVVGIHTISDQDNKDPRYFFSLKTDRARQVTTINAHRSYLPGQWVYLAATYDGQFMKLYVNGAQVATSGEQVGGIFSPLTQKCKVLMLGGSALNHNYRGYIEHFSLWKVARTQREILSDMETHGAHTALPQLLLQENWDNVKHAWSPMKDGSSPKVEFSNAHGFLLDTSLEPPLCGQTLCDNTEVIASYNQLSSFRQPKVVRYRVVNLYEDDHKNPTVTREQVDFQHHQLAEAFKQYNISWELDVLEVSNSSLRRRLILANCDISKIGDENCDPECNHTLTGHDGGDCRHLRHPAFVKKQHNGVCDMDCNYERFNFDGGECCDPEITNVTQTCFDPDSPHRAYLDVNELKNILKLDGSTHLNIFFAKSSEEELAGVATWPWDKEALMHLGGIVLNPSFYGMPGHTHTMIHEIGHSLGLYHVFRGISEIQSCSDPCMETEPSFETGDLCNDTNPAPKHKSCGDPGPGNDTCGFHSFFNTPYNNFMSYADDDCTDSFTPNQVARMHCYLDLVYQGWQPSRKPAPVALAPQVLGHTTDSVTLEWFPPIDGHFFERELGSACHLCLEGRILVQYASNASSPMPCSPSGHWSPREAEGHPDVEQPCKSSVRTWSPNSAVNPHTVPPACPEPQGCYLELEFLYPLVPESLTIWVTFVSTDWDSSGAVNDIKLLAVSGKNISLGPQNVFCDVPLTIRLWDVGEEVYGIQIYTLDEHLEIDAAMLTSTADTPLCLQCKPLKYKVVRDPPLQMDVASILHLNRKFVDMDLNLGSVYQYWVITISGTEESEPSPAVTYIHGSGYCGDGIIQKDQGEQCDDMNKINGDGCSLFCRQEVSFNCIDEPSRCYFHDGDGVCEEFEQKTSIKDCGVYTPQGFLDQWASNASVSHQDQQCPGWVIIGQPAASQVCRTKVIDLSEGISQHAWYPCTISYPYSQLAQTTFWLRAYFSQPMVAAAVIVHLVTDGTYYGDQKQETISVQLLDTKDQSHDLGLHVLSCRNNPLIIPVVHDLSQPFYHSQAVRVSFSSPLVAISGVALRSFDNFDPVTLSSCQRGETYSPAEQSCVHFACEKTDCPELAVENASLNCSSSDRYHGAQCTVSCRTGYVLQIRRDDELIKSQTGPSVTVTCTEGKWNKQVACEPVDCSIPDHHQVYAASFSCPEGTTFGSQCSFQCRHPAQLKGNNSLLTCMEDGLWSFPEALCELMCLAPPPVPNADLQTARCRENKHKVGSFCKYKCKPGYHVPGSSRKSKKRAFKTQCTQDGSWQEGACVPVTCDPPPPKFHGLYQCTNGFQFNSECRIKCEDSDASQGLGSNVIHCRKDGTWNGSFHVCQEMQGQCSVPNELNSNLKLQCPDGYAIGSECATSCLDHNSESIILPMNVTVRDIPHWLNPTRVERVVCTAGLKWYPHPALIHCVKGCEPFMGDNYCDAINNRAFCNYDGGDCCTSTVKTKKVTPFPMSCDLQGDCACRDPQAQEHSRKDLRGYSHG
proteolysis of [125I]IGFBP-4 [10]: Incubation of IVF follicular fluid with [125I]IGFBP-4 resulted in the loss of intact IGFBP-4 ... and the generation of radiolabeled fragments of 18- and 14-kDa

difference in specific activity between PAPP-A in pregnancy serum and rPAPP-A [11]: ~100 fold
specific activity against IGFBP-4 of the early (uncomplexed) against the late (PAPP-A/proMBP) Mono Q peak [11]: > 25 fold
B3: proform of eosinophil major basic protein (proMBP) (other, human, UniProt P13727 17-222, looked up)
chain: LHLRSETSTFETPLGAKTLPEDEETPEQEMEETPCRELEEEEEWGSGSEDASKKDGAVESISVPDMVDKNLTCPEEEDTVKVVGIPGCQTCRYLLVRSLQTFSQAWFTCRRCYRGNLVSIHNFNINYRIQCSVSALNQGQVWIGGRITGSGRCRRFQWVDGSRWNFAYWAAHQPWSRGGHCVALCTRGGHWRRAHCLRRLPFICSY
